Data taken from the supplement of paper PMC11316812.
± gives the standard deviation of the averaged measurements.

Columns and labels:
hTERT-HMEC = assay: percentage of EdU-negative (G0-arrested) nuclei per well, 72 h; higher = more G0 arrest; settings: reference: sequence is the full UniProt precursor, the tested protein was the secreted form or ectodomain
MCF7 = assay: as above; settings: reference: sequence is the full UniProt precursor, the tested protein was the secreted form or ectodomain
[1] = protein concentration 0.0225 µM
[2] = protein concentration 0.0119275 µM
[3] = protein concentration 0.119275 µM
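Note: secreted proteins added to cultured cells, EdU pulse at the end, nuclei found by Hoechst imaging, EdU status from nuclear versus surrounding ring intensity ratio, PBS as neutral control.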

“MQMPAMMSLLLVSVGLMEALQAQSHPITRRDLFSQEIQLDMALASFDDQYAGCAAAMTAALPDLNHTEFQANQVYADSWTLASSQWQERQARWPEWSLSPTRPSPPPLGFRDEHGVALLAYTANSPLHKEFNAAVREAGRSRAHYLHHFSFKTLHFLLTEALQLLGSGQRPPRCHQVFRGVHGLRFRPAGPRATVRLGGFASASLKHVAAQQFGEDTFFGIWTCLGAPIKGYSFFPGEEEVLIPPFETFQVINASRLAQGPARIYLRALGKHSTYNCEYIKDKKCKSGPCHLDNSAMGQSPLSAVWSLLLLLWFLVVRAFPDGPGLL” was tested, and the “percentage of EdU-negative” value (hTERT-HMEC; [1]) was 5.126 ± 0.0053%, the “percentage of EdU-negative” value (hTERT-HMEC; protein concentration 0.225 µM) was 6.16 ± 2.3% and the “percentage of EdU-negative” value (MCF7; [1]) was 23.7 ± 1.5%. The “percentage of EdU-negative” value (MCF7; protein concentration 0.225 µM) was 25 ± 0.33%.
With “MQPLWLCWALWVLPLASPGAALTGEQLLGSLLRQLQLKEVPTLDRADMEELVIPTHVRAQYVALLQRSHGDRSRGKRFSQSFREVAGRFLALEASTHLLVFGMEQRLPPNSELVQAVLRLFQEPVPKAALHRHGRLSPRSARARVTVEWLRVRDDGSNRTSLIDSRLVSVHESGWKAFDVTEAVNFWQQLSRPRQPLLLQVSVQREHLGPLASGAHKLVRFASQGAPAGLGEPQLELHTLDLGDYGAQGDCDPEAPMTEGTRCCRQEMYIDLQGMKWAENWVLEPPGFLAYECVGTCRQPPEALAFKWPFLGPRQCIASETDSLPMIVSIKEGGRTRPQVVSLPNMRVQKCSCASDGALVPRRLQP” the “percentage of EdU-negative” value (hTERT-HMEC; [2]) was 5.05 ± 0.39%, the “percentage of EdU-negative” value (hTERT-HMEC; [3]) was 5.49 ± 0.4% and the “percentage of EdU-negative” value (MCF7; [2]) was 25.8 ± 0.59%. The “percentage of EdU-negative” value (MCF7; [3]) was 26.51 ± 0.11%.
In the case of “MQPPRERLVVTGRAGWMGMGRGAGRSALGFWPTLAFLLCSFPAATSPCKILKCNSEFWSATSGSHAPASDDTPEFCAALRSYALCTRRTARTCRGDLAYHSAVHGIEDLMSQHNCSKDGPTSQPRLRTLPPAGDSQERSDSPEICHYEKSFHKHSATPNYTHCGLFGDPHLRTFTDRFQTCKVQGAWPLIDNNYLNVQVTNTPVLPGSAATATSKLTIIFKNFQECVDQKVYQAEMDELPAAFVDGSKNGGDKHGANSLKITEKVSGQHVEIQAKYIGTTIVVRQVGRYLTFAVRMPEEVVNAVEDWDSQGLYLCLRGCPLNQQIDFQAFHTNAEGTGARRLAAASPAPTAPETFPYETAVAKCKEKLPVEDLYYQACVFDLLTTGDVNFTLAAYYALEDVKMLHSNKDKLHLYERTRDLPGRAAAGLPLAPRPLLGALVPLLALLPVFC [Q96B86]”, the “percentage of EdU-negative” value (hTERT-HMEC; [1]) is reported as 5.15 ± 0.82%, the “percentage of EdU-negative” value (hTERT-HMEC; protein concentration 0.225 µM) is reported as 6.53 ± 1.7% and the “percentage of EdU-negative” value (MCF7; [1]) is reported as 25.3 ± 1.1%. For the same sequence, the “percentage of EdU-negative” value (MCF7; protein concentration 0.225 µM) was 26.4 ± 2%.
For “MQPRRQRLPAPWSGPRGPRPTAPLLALLLLLAPVAAPAGSGDPDDPGQPQDAGVPRRLLQQAARAALHFFNFRSGSPSALRVLAEVQEGRAWINPKEGCKVHVVFSTERYNPESLLQEGEGRLGKCSARVFFKNQKPRPTINVTCTRLIEKKKRQQEDYLLYKQMKQLKNPLEIVSIPDNHGHIDPSLRLIWDLAFLGSSYVMWEMTTQVSHYYLAQLTSVRQWKTNDDTIDFDYTVLLHELSTQEIIPCRIHLVWYPGKPLKVKYHCQELQTPEEASGTEEGSAVVPTELSNF”, the “percentage of EdU-negative” value (hTERT-HMEC; [1]) was 5.08 ± 0.6%, the “percentage of EdU-negative” value (hTERT-HMEC; protein concentration 0.225 µM) was 4.8 ± 0.36% and the “percentage of EdU-negative” value (MCF7; [1]) was 24.2 ± 1.8%. The “percentage of EdU-negative” value (MCF7; protein concentration 0.225 µM) was 28 ± 0.37%.
“MQPRTPLVLCVLLSQVLLLTSAEDLDCTPGFQQKVFHINQPAEFIEDQSILNLTFSDCKGNDKLRYEVSSPYFKVNSDGGLVALRNITAVGKTLFVHARTPHAEDMAELVIVGGKDIQGSLQDIFKFARTSPVPRQKRSIVVSPILIPENQRQPFPRDVGKVVDSDRPERSKFRLTGKGVDQEPKGIFRINENTGSVSVTRTLDREVIAVYQLFVETTDVNGKTLEGPVPLEVIVIDQNDNRPIFREGPYIGHVMEGSPTGTTVMRMTAFDADDPATDNALLRYNIRQQTPDKPSPNMFYIDPEKGDIVTVVSPALLDRETLENPKYELIIEAQDMAGLDVGLTGTATATIMIDDKNDHSPKFTKKEFQATVEEGAVGVIVNLTVEDKDDPTTGAWRAAYTIINGNPGQSFEIHTNPQTNEGMLSVVKPLDYEISAFHTLLIKVENEDPLVPDVSYGPSSTATVHITVLDVNEGPVFYPDPMMVTRQEDLSVGSVLLTVNATDPDSLQHQTIRYSVYKDPAGWLNINPINGTVDTTAVLDRESPFVDNSVYTALFLAIDSGNPPATGTGTLLITLEDVNDNAPFIYPTVAEVCDDAKNLSVVILGASDKDLHPNTDPFKFEIHKQAVPDKVWKISKINNTHALVSLLQNLNKANYNLPIMVTDSGKPPMTNITDLRVQVCSCRNSKVDCNAAGALRFSLPSVLLLSLFSLACL” was tested, and the “percentage of EdU-negative” value (hTERT-HMEC; [1]) was 4.14 ± 0.25%, the “percentage of EdU-negative” value (hTERT-HMEC; protein concentration 0.225 µM) was 9.2557 ± 0.0081% and the “percentage of EdU-negative” value (MCF7; [1]) was 24.7 ± 1.2%. The “percentage of EdU-negative” value (MCF7; protein concentration 0.225 µM) was 27.1 ± 0.61%.
